{"source": "paper PMC4381397", "about": "“The recently identified modifier of murine metastable epialleles, Rearranged L-Myc Fusion, is involved in maintaining epigenetic marks at CpG island shores and enhancers”", "biological_target": "Gata1CF (UniProt P17679 249-311)", "sequence (P17679 249-311)": "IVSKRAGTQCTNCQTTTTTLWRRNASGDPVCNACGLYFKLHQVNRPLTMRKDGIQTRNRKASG", "assay": "EMSA; 0.5 and 5 uM protein, 5 nM probe, 10 uM ZnSO4; 10 mM HEPES pH 7.9, 30 mM NaCl, 1 mM MgCl2, 20 uM EDTA, 10 mM DTT, 10 uM ZnSO4, 67 ug/mL acetylated BSA, 4% Ficoll; on ice 30 min", "settings": "protein: recombinant; label: 5' FAM"}
{"binder": "PP2 pentaprobe (ssDNA) DNA: TATCTTACTTTAGTTTCATTTAATTGTGTTGTACTCTCCTCTGCGTTCACTTAGCTTAACTTGGTTTGGCTTGATTTGACTTCAGTTGCGCTCTATTCTA", "values": [{"measurement": "binding result", "result": "binds"}]}
{"binder": "PP4 pentaprobe (ssDNA) DNA: TATCCTACCCATTGGGCTCATCTGATCCATCCGGTCCCGTCCACTCGGCTATGTTATGCTGTATTGCAGTCGTGTCGCGTCGAGCTGCCCTAATCCCACC", "values": [{"measurement": "binding result", "result": "binds"}]}
